Target: T1, recombinant full-length Vps41 (S. cerevisiae, UniProt P38959 1-992)
T1 sequence: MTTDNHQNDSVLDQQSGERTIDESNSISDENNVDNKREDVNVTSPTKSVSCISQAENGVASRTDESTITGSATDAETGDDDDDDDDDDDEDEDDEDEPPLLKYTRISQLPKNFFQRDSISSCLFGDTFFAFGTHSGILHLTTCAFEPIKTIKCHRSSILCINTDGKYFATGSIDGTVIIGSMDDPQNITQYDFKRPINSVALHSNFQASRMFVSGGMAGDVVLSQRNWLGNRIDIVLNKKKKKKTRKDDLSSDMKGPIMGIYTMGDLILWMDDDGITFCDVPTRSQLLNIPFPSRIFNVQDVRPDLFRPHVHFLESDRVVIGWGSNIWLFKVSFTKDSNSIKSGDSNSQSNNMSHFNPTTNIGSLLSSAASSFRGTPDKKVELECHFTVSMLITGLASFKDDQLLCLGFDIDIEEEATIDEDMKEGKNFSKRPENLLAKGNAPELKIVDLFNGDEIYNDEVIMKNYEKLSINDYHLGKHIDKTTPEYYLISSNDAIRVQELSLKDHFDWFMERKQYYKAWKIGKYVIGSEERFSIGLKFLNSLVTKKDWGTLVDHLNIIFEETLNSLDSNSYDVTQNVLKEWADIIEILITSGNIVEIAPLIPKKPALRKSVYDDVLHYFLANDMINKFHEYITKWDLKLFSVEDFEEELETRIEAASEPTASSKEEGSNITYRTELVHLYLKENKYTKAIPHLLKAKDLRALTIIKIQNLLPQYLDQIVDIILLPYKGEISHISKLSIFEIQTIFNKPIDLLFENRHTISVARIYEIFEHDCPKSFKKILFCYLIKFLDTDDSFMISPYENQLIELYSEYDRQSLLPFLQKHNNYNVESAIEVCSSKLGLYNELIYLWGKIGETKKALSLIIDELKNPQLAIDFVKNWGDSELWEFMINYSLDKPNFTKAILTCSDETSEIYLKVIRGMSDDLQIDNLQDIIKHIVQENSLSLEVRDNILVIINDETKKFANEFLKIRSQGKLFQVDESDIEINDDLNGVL
Assay: pull-down

binding result: binds
B1: GST-Ypt7 (natural protein)
chain: MSSRKKNILKVIILGDSGVGKTSLMHRYVNDKYSQQYKATIGADFLTKEVTVDGDKVATMQVWDTAGQERFQSLGVAFYRGADCCVLVYDVTNASSFENIKSWRDEFLVHANVNSPETFPFVILGNKIDAEESKKIVSEKSAQELAKSLGDIPLFLTSAKNAINVDTAFEEIARSALQQNQADTEAFEDDYNDAINIRLDGENNSCSC
